The values below are quoted from earlier work in PMC7349879.

For series [1], the target named is EpCAM (Homo sapiens) (UniProt P16422).
The target in series [2] is EpCAM cis-dimer (Homo sapiens) (UniProt P16422).
For series [3], the target named is β-catenin (Homo sapiens) (UniProt P35222).
UniProt P35222, sequence (P35222 2-781): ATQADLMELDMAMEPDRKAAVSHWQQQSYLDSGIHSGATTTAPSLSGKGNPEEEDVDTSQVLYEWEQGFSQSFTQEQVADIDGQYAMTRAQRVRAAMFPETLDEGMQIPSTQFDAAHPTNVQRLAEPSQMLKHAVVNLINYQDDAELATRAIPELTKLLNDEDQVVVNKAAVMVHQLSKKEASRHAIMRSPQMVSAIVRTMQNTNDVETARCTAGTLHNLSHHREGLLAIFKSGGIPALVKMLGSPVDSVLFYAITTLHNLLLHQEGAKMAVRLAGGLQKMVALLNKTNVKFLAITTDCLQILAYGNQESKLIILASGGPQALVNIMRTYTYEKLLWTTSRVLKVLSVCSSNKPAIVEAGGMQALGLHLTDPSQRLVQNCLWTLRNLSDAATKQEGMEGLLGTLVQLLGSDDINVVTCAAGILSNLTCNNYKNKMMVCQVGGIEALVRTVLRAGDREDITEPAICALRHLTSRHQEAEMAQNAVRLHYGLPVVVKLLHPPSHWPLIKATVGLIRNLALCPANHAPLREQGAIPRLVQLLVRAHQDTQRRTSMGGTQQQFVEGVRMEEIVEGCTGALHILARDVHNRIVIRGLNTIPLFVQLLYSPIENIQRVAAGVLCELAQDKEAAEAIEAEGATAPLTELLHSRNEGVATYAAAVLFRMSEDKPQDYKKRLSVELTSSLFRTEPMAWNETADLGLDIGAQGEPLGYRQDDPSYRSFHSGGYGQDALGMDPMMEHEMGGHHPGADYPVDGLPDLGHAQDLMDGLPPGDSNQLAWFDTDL

What is called Kd is the constant that tells how readily two partners part at equilibrium. With EpCAM (from UniProt P16422), the Kd in series [1] was less than 10 nM. EpCAM cis-dimer (from UniProt P16422): in series [2], the Kd was 10000 nM. In the case of FHL2 (from UniProt Q14192), in series [3], the Kd is 1080 nM.
